± gives the uncertainty stated by the source.

This data set is described as follows: self-splicing fitness, log relative to wild type (ln ratio); higher = more splicing; Tetrahymena group I intron in knt gene, E. coli kanamycin selection, DiMSum; sequences stand for … in CUCUCU…GGAGGGAAAAGUUAUCAGGCAUGCACCUGGUAGCUAGUCUUUAAACCAAUAGAUUGCAUCGGUUUAAAAGGCAAGACCGUCAAAUUGCGGGAAAGGGGUCAACAGCCGUUCAGUACCAAGUCUCAGGGGAAACUUUGAGAUGGCCUUGCAAAGGGUAUGGUAAUAAGCUGACGGACAUGGUCCUAACCACGCAGCCAAGUCCUAAGUCAACAGAUCUUCUGUUGAUAUGGAUGCAGUUCACAGACUAAAUGUCGGUCGGGGAAGAUGUAUUCUUCUCAUAAGAUAUAGUCGGACCUCUCCUUAAUGGGAGCUAGCGGAUGAAGUGAUGCAACACUGGAGCCGCUGGGAACUAAUUUGUAUGCGAAAGUAUAUUGAUUAGUUUUGGAGUACUCGUGGUCG
The method, boiled down:
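A randomised library covering all eight P1ex-region intron nucleotides was built with the intron in the knt kanamycin-resistance gene on pET-22b(+) and held in E. coli BL21(DE3). Cells were grown overnight at 37°C or 30°C on LB agar, with or without 25 μg/mL kanamycin, plus 100 μg/mL carbenicillin, 50 μM IPTG and 0.2% rhamnose, and pooled colonies were amplicon-sequenced on an Illumina HiSeq 2500. DiMSum fitness is the error-weighted combination of wild-type-normalised replicate fold changes, kanamycin versus none.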

ACAAAGCAAUAUUACGAAGC: the “self-splicing fitness (ln)” value is, setting by setting: (30 °C) -3.71 ± 0.22; (37 °C) -0.444 ± 0.15.
The like results for AGGAAGCAAUAUUACGCCCA were, in that order, -0.363 ± 0.42 and 1.47 ± 0.39.
Take UCAGAGCAAUAUUACGCGUC: for the setting “30 °C”, the “self-splicing fitness (ln)” value was -2.62 ± 0.18.
With CGCUAGCAAUAUUACGUCGA, the “self-splicing fitness (ln)” value was -2.02 ± 0.35 (30 °C) and -1.78 ± 0.32 (37 °C).
The like results for UAACAGCAAUAUUACGAAUG were, in that order, -0.844 ± 0.085 and -0.788 ± 0.098.
The like results for AUUCAGCAAUAUUACGCACU were, in that order, -0.181 ± 0.062 and 0.535 ± 0.086.
In the case of CACGAGCAAUAUUACGAUAG, the “self-splicing fitness (ln)” value reads like this: (30 °C) -3.14 ± 0.15; (37 °C) -1.6 ± 0.18.
Turning to ACUUAGCAAUAUUACGGGUU, the “self-splicing fitness (ln)” value was -3.42 ± 0.19 (30 °C) and -3.29 ± 0.3 (37 °C).
For CUCAAGCAAUAUUACGUUUA, the “self-splicing fitness (ln)” value runs as follows: (30 °C) -3.93 ± 0.24; (37 °C) -2.65 ± 0.16.
In the case of GCCUAGCAAUAUUACGAUUC, the “self-splicing fitness (ln)” value was -0.921 ± 0.076 (30 °C) and -0.684 ± 0.096 (37 °C).
Regarding AAUUAGCAAUAUUACGGACA, the “self-splicing fitness (ln)” value by setting is: (30 °C) -0.45 ± 0.19; (37 °C) -1.28 ± 0.18.
For the sequence GUUCAGCAAUAUUACGAUCA, the “self-splicing fitness (ln)” value is, setting by setting: (30 °C) -1.81 ± 0.19; (37 °C) -0.536 ± 0.14.
The like results for ACUUAGCAAUAUUACGUACA were, in that order, -1.84 ± 0.17 and -0.763 ± 0.15.
As to GACUAGCAAUAUUACGCACC, the “self-splicing fitness (ln)” value was -0.905 ± 0.18 (30 °C) and 0.000851 ± 0.28 (37 °C).
With AGUUAGCAAUAUUACGUCUG, the “self-splicing fitness (ln)” value was -1.43 ± 0.074 (30 °C) and -1.72 ± 0.11 (37 °C).
The like results for AAAUAGCAAUAUUACGGGGU were, in that order, -3.27 ± 0.17 and -2.12 ± 0.19.
UCAAAGCAAUAUUACGGCAC: the “self-splicing fitness (ln)” value (30 °C) was -3.33 ± 0.38 and the “self-splicing fitness (ln)” value (37 °C) is -1.68 ± 0.35.
Regarding GCUGAGCAAUAUUACGCAGA, the “self-splicing fitness (ln)” value (30 °C) was -2.47 ± 0.29 and the “self-splicing fitness (ln)” value (37 °C) is -1.6 ± 0.32.
As for GCAGAGCAAUAUUACGAAUG, the “self-splicing fitness (ln)” value (30 °C) was -2.71 ± 0.35.
Turning to CGUAAGCAAUAUUACGUUCU, the “self-splicing fitness (ln)” value is, setting by setting: (30 °C) -1.61 ± 0.13; (37 °C) -0.0321 ± 0.12.
For AGCAAGCAAUAUUACGGUCG the same measures were -0.327 ± 0.1 and 0.74 ± 0.13.
For CUGUAGCAAUAUUACGUUAG the same measures were -2.72 ± 0.11 and -1.77 ± 0.11.
For UCGAAGCAAUAUUACGUCGU, the “self-splicing fitness (ln)” value runs as follows: (30 °C) -2.65 ± 0.2; (37 °C) -1.34 ± 0.15.
The like results for GAGUAGCAAUAUUACGAUCA were, in that order, 0.0664 ± 0.19 and -0.761 ± 0.21.
The like results for GAUCAGCAAUAUUACGCGUC were, in that order, -2.9 ± 0.18 and -3.33 ± 0.4.
For AAGCAGCAAUAUUACGUUAA the same measures were -1.76 ± 0.12 and -2.14 ± 0.14.
As to UCAGAGCAAUAUUACGGCUU, the “self-splicing fitness (ln)” value is -3.38 ± 0.34 (30 °C) and -2.19 ± 0.35 (37 °C).
The like results for UAGGAGCAAUAUUACGUCGU were, in that order, -1.72 ± 0.28 and -1.86 ± 0.35.
For the sequence AGGGAGCAAUAUUACGCGAG, the “self-splicing fitness (ln)” value runs as follows: (30 °C) -3.35 ± 0.19; (37 °C) -2.47 ± 0.19.
Turning to UGGGAGCAAUAUUACGUAAC, the “self-splicing fitness (ln)” value (30 °C) was -1.63 ± 0.41.
For UUCAAGCAAUAUUACGUGUU, the “self-splicing fitness (ln)” value runs as follows: (30 °C) -3.23 ± 0.13; (37 °C) -1.72 ± 0.11.
GCACAGCAAUAUUACGGCCC: the “self-splicing fitness (ln)” value (30 °C) is -0.235 ± 0.1 and the “self-splicing fitness (ln)” value (37 °C) was -0.615 ± 0.13.
For CUUUAGCAAUAUUACGGUGG the same measures were -1.96 ± 0.1 and -0.665 ± 0.11.
For UACAAGCAAUAUUACGUAAC the same measures were -4.15 ± 0.16 and -2.28 ± 0.15.
As to GACAAGCAAUAUUACGCUUA, the “self-splicing fitness (ln)” value is, setting by setting: (30 °C) -1.52 ± 0.098; (37 °C) -0.863 ± 0.1.
The like results for AGGUAGCAAUAUUACGAGGC were, in that order, -3.696 ± 0.036 and -2.87 ± 0.047.
The like results for AGAGAGCAAUAUUACGGCAG were, in that order, -1.51 ± 0.24 and -1.42 ± 0.43.
AUGUAGCAAUAUUACGCCAA: the “self-splicing fitness (ln)” value (30 °C) is -0.877 ± 0.19 and the “self-splicing fitness (ln)” value (37 °C) is -1.5 ± 0.19.
The like results for AUUAAGCAAUAUUACGUGUU were, in that order, -2.6 ± 0.11 and -0.83 ± 0.098.
As to AUCAAGCAAUAUUACGUUAG, the “self-splicing fitness (ln)” value was -3.1 ± 0.14 (30 °C) and -3.05 ± 0.2 (37 °C).
The like results for ACGAAGCAAUAUUACGCUUC were, in that order, -3.44 ± 0.19 and -2.59 ± 0.2.
For UCACAGCAAUAUUACGUGGG the same measures were -3.34 ± 0.12 and -2.68 ± 0.12.
With AAUCAGCAAUAUUACGUCCG, the “self-splicing fitness (ln)” value is, setting by setting: (30 °C) -1.59 ± 0.085; (37 °C) -0.00732 ± 0.11.
Turning to GAGUAGCAAUAUUACGAGUG, the “self-splicing fitness (ln)” value reads like this: (30 °C) -2.34 ± 0.091; (37 °C) -0.452 ± 0.11.
The like results for CGCCAGCAAUAUUACGAGAA were, in that order, -2.14 ± 0.42 and -2.75 ± 0.38.
CAGAAGCAAUAUUACGCUUA: the “self-splicing fitness (ln)” value is -3.85 ± 0.32 (30 °C) and -1.9 ± 0.18 (37 °C).
As for UAGCAGCAAUAUUACGCGUA, the “self-splicing fitness (ln)” value reads like this: (30 °C) -1.2 ± 0.1; (37 °C) 0.478 ± 0.1.
Consider CGCUAGCAAUAUUACGUCAC, for which the “self-splicing fitness (ln)” value (30 °C) was -4.44 ± 0.42 and the “self-splicing fitness (ln)” value (37 °C) was -3.4 ± 0.37.
For AGCUAGCAAUAUUACGCAAC, the “self-splicing fitness (ln)” value by setting is: (30 °C) -3.6 ± 0.35; (37 °C) -1.86 ± 0.32.
The like results for UAACAGCAAUAUUACGAUAG were, in that order, -1.21 ± 0.11 and -0.506 ± 0.12.
On to UGCUAGCAAUAUUACGCUAU, for which the “self-splicing fitness (ln)” value reads like this: (30 °C) -2.75 ± 0.21; (37 °C) -0.801 ± 0.12.
For UCCGAGCAAUAUUACGAGGG the same measures were -4.27 ± 0.25 and -1.93 ± 0.22.
For UUCGAGCAAUAUUACGUCCU the same measures were -3.78 ± 0.47 and -2.4 ± 0.41.
For GUAUAGCAAUAUUACGAUUG, the “self-splicing fitness (ln)” value by setting is: (30 °C) -3.48 ± 0.42; (37 °C) -1.67 ± 0.3.
The like results for AGAUAGCAAUAUUACGGCCU were, in that order, -0.604 ± 0.11 and 0.606 ± 0.14.
For GAUGAGCAAUAUUACGCAAG the same measures were -2.46 ± 0.38 and -1.51 ± 0.36.
For CGGCAGCAAUAUUACGGUUU the same measures were -2.16 ± 0.077 and -0.769 ± 0.089.
In the case of AUCUAGCAAUAUUACGAUAU, the “self-splicing fitness (ln)” value is -1.15 ± 0.076 (30 °C) and -0.605 ± 0.1 (37 °C).
For ACAAAGCAAUAUUACGCGAG the same measures were -1.33 ± 0.06 and -0.621 ± 0.072.
CGUGAGCAAUAUUACGUCCA: the “self-splicing fitness (ln)” value was -2.37 ± 0.26 (30 °C) and -2.38 ± 0.34 (37 °C).
For GCGUAGCAAUAUUACGCGUA the same measures were -2.83 ± 0.46 and -2.3 ± 0.37.
For the sequence AAGCAGCAAUAUUACGAUUC, the “self-splicing fitness (ln)” value runs as follows: (30 °C) -1.73 ± 0.081; (37 °C) -0.707 ± 0.092.
For the sequence CCACAGCAAUAUUACGUAUG, the “self-splicing fitness (ln)” value by setting is: (30 °C) -0.654 ± 0.047; (37 °C) -0.391 ± 0.065.
The like results for CCACAGCAAUAUUACGAGGA were, in that order, -3.8 ± 0.18 and -1.32 ± 0.12.
For the sequence UAGCAGCAAUAUUACGGUAU, the “self-splicing fitness (ln)” value (30 °C) was -2.97 ± 0.092 and the “self-splicing fitness (ln)” value (37 °C) is -2.41 ± 0.094.
As to UCGAAGCAAUAUUACGCUAG, the “self-splicing fitness (ln)” value (30 °C) was -2.16 ± 0.14 and the “self-splicing fitness (ln)” value (37 °C) is -0.234 ± 0.14.
On to UAGCAGCAAUAUUACGUGCU, for which the “self-splicing fitness (ln)” value runs as follows: (30 °C) -1.12 ± 0.12; (37 °C) -1.9 ± 0.16.
For CGAUAGCAAUAUUACGUGAG the same measures were -0.997 ± 0.07 and -0.771 ± 0.091.
The like results for CAACAGCAAUAUUACGUUCA were, in that order, -1.06 ± 0.051 and 0.193 ± 0.061.
For AAAGAGCAAUAUUACGGGCA the same measures were -2.45 ± 0.2 and -1.42 ± 0.24.
Take GAACAGCAAUAUUACGUGGC: the “self-splicing fitness (ln)” value is -3.03 ± 0.17 (30 °C) and -2.6 ± 0.18 (37 °C).
For CGCGAGCAAUAUUACGUAUU, the “self-splicing fitness (ln)” value reads like this: (30 °C) -3.09 ± 0.43; (37 °C) -2.6 ± 0.39.
The like results for CGACAGCAAUAUUACGUAUU were, in that order, -3.09 ± 0.14 and -2.53 ± 0.16.
The like results for UACUAGCAAUAUUACGACAA were, in that order, -0.443 ± 0.12 and -0.256 ± 0.11.
The like results for ACGAAGCAAUAUUACGUCGU were, in that order, -3.41 ± 0.29 and -3.5 ± 0.42.

These data come from the supplement of paper PMC7877785.
